The target of assay [1] is T1, human B7H4 expressed on CHO cells (human, UniProt Q7Z7D3 25-282).
T1 construct: whole, on cells; also called VCTN1
T1 sequence (looked up): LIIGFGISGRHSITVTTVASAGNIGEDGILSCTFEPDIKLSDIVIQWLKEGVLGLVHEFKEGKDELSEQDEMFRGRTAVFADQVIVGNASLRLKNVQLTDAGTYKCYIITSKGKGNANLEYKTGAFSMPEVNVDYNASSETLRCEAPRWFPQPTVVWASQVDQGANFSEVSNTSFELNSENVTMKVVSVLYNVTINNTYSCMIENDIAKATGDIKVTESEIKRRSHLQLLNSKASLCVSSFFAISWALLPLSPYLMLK
Briefly: FACS, CHO cells.

In assay [2] the target is T2, human CD40 expressed on CHO cells (human, UniProt P25942 21-277).
T2 construct: whole, on cells; also used for the reporter cells over-expressing human CD40; also called cellular CD40; CHO-CD40 cells
Description: FACS, CHO cells.

In assay [3] the target is T3, Human CD40 ECD protein (mouse IgG2a Fc tag) (human, UniProt P25942 21-193).
T3 construct: extracellular domain; also called Human CD40-msFc; human recombinant CD40; not shown: mouse IgG2a Fc tag
Description: bridging ELISA, coated B7H4, soluble CD40 ECD-mFc. As to the method:
Anti-B7H4/CD40 bi-specific antibodies were analyzed by ELISA for their simultaneous binding to recombinant human B7H4 and human CD40. Briefly, human B7H4 protein was diluted and coated onto an ELISA plate with a volume of […] by incubation at 4° C. overnight. The next day, the plate was blocked by PBST-BSA buffer, then serially diluted samples of anti-B7H4/CD40 bi-specific antibodies were pipetted into appropriate wells at 50 μL/well, and the plate was incubated for 1 h followed by Washing. Human CD40 ECD protein (mouse IgG2a Fc tag) was added into the plate at 50 μL/well. After 1-hour incubation at room temperature, HRP-conjugated anti-mouse IgG (H+L) antibody was added into the plate at 100 μL/well. The plate was incubated for 1 hour at room temperature followed by washing. TMB substrate solution was added at 100 μL/well and the color development was stopped by adding 100 uL/well Stop Solution (2N H2SO4). Absorbance at 450 nm and 620 nm was read by Tecan F200 Pro plate reader. GraphPad 7.0, “[Agonist] vs. response—Variable slope (four parameters)” was used to plot the binding data and calculate binding EC50 values.
(In general: ELISA stands for enzyme-linked immunosorbent assay.)

The target in assay [4] is T4, Ly090 (human CD40 ECD protein with His tag) (human, UniProt P25942 21-193).
T4 construct: extracellular domain; also called human CD40 ECD protein (His tag); recombinant human CD40; not shown: His tag
Briefly: bridging ELISA, coated CD40 ECD-His, soluble PD-L1 ECD-mFc. As to the method: Exemplary anti-PD-L1/CD40 bi-specific antibodies were analyzed by ELISA for their simultaneous binding to recombinant human PD-L1 and human CD40. Briefly, Ly090 (human CD40 ECD protein with His tag) was diluted and coated onto an ELISA plate with a volume of 100 μL/well by incubation at 4° C. overnight. The next day, the plate was blocked by PBST-BSA buffer, then serially diluted samples of anti-PD-L1/CD40 bi-specific antibodies were pipetted into appropriate wells at 50 μL/well, and the plate was incubated for 1 h followed by Washing. Human PD-L1 ECD protein (mouse IgG2a Fc tag) was added into the plate at 50 μL/well. After 1-hour incubation at room temperature, HRP-conjugated anti-Mouse IgG, Fc G2a antibody was added into the plate at 100 μL/well. The plate was incubated for 1 hour at room temperature followed by washing. TMB substrate solution was added at 100 μL/well and the color development was stopped by adding 100 uL/well Stop Solution (2N H₂SO₄). Absorbance at 450 nm and 620 nm was read by Tecan F200 Pro plate reader. GraphPad 7.0, “[Agonist] vs. response—Variable slope (four parameters)” was used to plot the binding data and calculate binding EC50 values.

T2 sequence (P25942 21-277): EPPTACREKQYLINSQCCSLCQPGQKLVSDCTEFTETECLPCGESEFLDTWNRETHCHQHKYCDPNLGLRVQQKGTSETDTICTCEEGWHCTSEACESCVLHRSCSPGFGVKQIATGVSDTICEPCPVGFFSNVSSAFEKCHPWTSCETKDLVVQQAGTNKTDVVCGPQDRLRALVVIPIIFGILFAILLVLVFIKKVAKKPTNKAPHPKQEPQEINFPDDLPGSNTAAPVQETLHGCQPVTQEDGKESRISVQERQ
T3 sequence (P25942 21-193): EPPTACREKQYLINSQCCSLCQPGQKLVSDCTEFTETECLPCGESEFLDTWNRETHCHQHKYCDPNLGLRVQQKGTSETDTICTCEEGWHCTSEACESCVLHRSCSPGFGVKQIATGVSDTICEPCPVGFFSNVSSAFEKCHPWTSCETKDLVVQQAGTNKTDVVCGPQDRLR
T4 sequence (P25942 21-193): as above

B1: Ly475 (bispecific antibody, human IgG1, kappa)
heavy: EVQLVESGGDLVKPGGSLKLSCAASGFTFSSYGMSWVRQTPDKRLEWVAAISTGGSYTYYPDSVKGRFTISRDTATNTLYLQMSTLKSEDTAMYYCTRRGATGSWFAYWGQGTLVTVSAASTKGPSVFPLAPSSKSTSGGTAALGCLVKDYFPEPVTVSWNSGALTSGVHTFPAVLQSSGLYSLSSVVTVPSSSLGTQTYICNVNHKPSNTKVDKKVEPKSCDKTHTCPPCPAPELLGPSVFLFPPKPKDTLMISRTPEVTCVVVDVSHEDPEVKFNWYVDGVEVHNAKTKPREEQYNSTYRVVSVLTVLHQDWLNGKEYKCKVSNKALPAPIEKTISKAKGQPREPQVYTLPPSREEMTKNQVSLTCLVKGFYPSDIAVEWESNGQPENNYKTTPPVLDSDGSFFLYSKLTVDKSRWQQGNVFSCSVMHEALHNHYTQKSLSLSPGGGGGSGGGGSGGGGSGGGGSQVQLVESGGGLVQPGGSLKLSCATSGFNFNDYFMNWVRQASGKGLEWVGQIRNKNYNYATYYTESLEGRVTISRDDSKNTAYLQMNSLKTEDTAVYYCTSYYYDGFADYFDYWGQGTTVTVSSGGGGSGGGGSGGGGSGGGGSDIQMTQSPSSLSASVGDRVTITCKASQNIYIYLNWYQQKPGKAPKLLIYNTNNLQTGVPSRFSGSGSGTDFTLTISSLQPEDFATYYCLQHSSRRTFGGGTKVEIK
light: DILMTQSPSSMSVSLGDTVSITCHASQGINNNIGWLQRKPGKSFKGLIYHGTNLEDGVPSRFSGSGSGADYSLTISSLESEDFADYYCVQYVQFPRTFGGGTKLEIKRTVAAPSVFIFPPSDEQLKSGTASVVCLLNNFYPREAKVQWKVDNALQSGNSQESVTEQDSKDSTYSLSSTLTLSKADYEKHKVYACEVTHQGLSSPVTKSFNRGEC
notes: Ly361 HC (IgG1 mutated Fc)-TM740 scFv VH-VL + Ly361 LC
In the case of B1, the binding result in assay [1], in assay [2] and in assay [3] was “binds” throughout.

B2: Ly478 (bispecific antibody, human IgG1, kappa)
heavy: EVQLVESGGDLVKPGGSLKLSCAASGFTFSSYGMSWVRQTPDKRLEWVAAISTGGSYTYYPDSVKGRFTISRDTATNTLYLQMSTLKSEDTAMYYCTRRGATGSWFAYWGQGTLVTVSAASTKGPSVFPLAPSSKSTSGGTAALGCLVKDYFPEPVTVSWNSGALTSGVHTFPAVLQSSGLYSLSSVVTVPSSSLGTQTYICNVNHKPSNTKVDKKVEPKSCDKTHTCPPCPAPELLGPSVFLFPPKPKDTLMISRTPEVTCVVVDVSHEDPEVKFNWYVDGVEVHNAKTKPREEQYNSTYRVVSVLTVLHQDWLNGKEYKCKVSNKALPAPIEKTISKAKGQPREPQVYTLPPSREEMTKNQVSLTCLVKGFYPSDIAVEWESNGQPENNYKTTPPVLDSDGSFFLYSKLTVDKSRWQQGNVFSCSVMHEALHNHYTQKSLSLSPGGGGGSGGGGSGGGGSGGGGSDIQMTQSPSSLSASVGDRVTITCLASEDISNDLAWYQQKPGKAPKLLIYFVDRLLDGVPSRFSGSGSGTDFTLTISSLQPEDFATYYCQQSYKYPPTFGQGTKLEIKGGGGSGGGGSGGGGSGGGGSEVQLVESGGGLVQPGGSLRLSCAASGFTFTNYGLHWVRQAPGKGLEWVSSISPSGGVTYYRDSVKGRFTISRDNSKNTLYLQMNSLRAEDTAVYYCAKPFLGWGGANWIAHWGQGTLVTVSS
light: DILMTQSPSSMSVSLGDTVSITCHASQGINNNIGWLQRKPGKSFKGLIYHGTNLEDGVPSRFSGSGSGADYSLTISSLESEDFADYYCVQYVQFPRTFGGGTKLEIKRTVAAPSVFIFPPSDEQLKSGTASVVCLLNNFYPREAKVQWKVDNALQSGNSQESVTEQDSKDSTYSLSSTLTLSKADYEKHKVYACEVTHQGLSSPVTKSFNRGEC
notes: Ly361 HC (IgG1 mutated Fc)-TM559 (printed TM599) scFv VL-VH + Ly361 LC
In the case of B2, the binding result in assay [1], in assay [2] and in assay [3] was “binds” each time.

B3: Ly479 (bispecific antibody, human IgG1, kappa)
heavy: EVQLVESGGDLVKPGGSLKLSCAASGFTFSSYGMSWVRQTPDKRLEWVAAISTGGSYTYYPDSVKGRFTISRDTATNTLYLQMSTLKSEDTAMYYCTRRGATGSWFAYWGQGTLVTVSAASTKGPSVFPLAPSSKSTSGGTAALGCLVKDYFPEPVTVSWNSGALTSGVHTFPAVLQSSGLYSLSSVVTVPSSSLGTQTYICNVNHKPSNTKVDKKVEPKSCDKTHTCPPCPAPELLGPSVFLFPPKPKDTLMISRTPEVTCVVVDVSHEDPEVKFNWYVDGVEVHNAKTKPREEQYNSTYRVVSVLTVLHQDWLNGKEYKCKVSNKALPAPIEKTISKAKGQPREPQVYTLPPSREEMTKNQVSLTCLVKGFYPSDIAVEWESNGQPENNYKTTPPVLDSDGSFFLYSKLTVDKSRWQQGNVFSCSVMHEALHNHYTQKSLSLSPGGGGGSGGGGSGGGGSGGGGSEVQLVESGGGLVQPGGSLRLSCAASGFTFTNYGLHWVRQAPGKGLEWVSSISPSGGVTYYRDSVKGRFTISRDNSKNTLYLQMNSLRAEDTAVYYCAKPFLGWGGANWIAHWGQGTLVTVSSGGGGSGGGGSGGGGSGGGGSDIQMTQSPSSLSASVGDRVTITCLASEDISNDLAWYQQKPGKAPKLLIYFVDRLLDGVPSRFSGSGSGTDFTLTISSLQPEDFATYYCQQSYKYPPTFGQGTKLEIK
light: DILMTQSPSSMSVSLGDTVSITCHASQGINNNIGWLQRKPGKSFKGLIYHGTNLEDGVPSRFSGSGSGADYSLTISSLESEDFADYYCVQYVQFPRTFGGGTKLEIKRTVAAPSVFIFPPSDEQLKSGTASVVCLLNNFYPREAKVQWKVDNALQSGNSQESVTEQDSKDSTYSLSSTLTLSKADYEKHKVYACEVTHQGLSSPVTKSFNRGEC
notes: Ly361 HC-TM559 scFv VH-VL + Ly361 LC
With B3, the binding result in assay [1], in assay [2] and in assay [3] was “binds” throughout.

B4: Ly483 (bispecific antibody, human IgG1, kappa)
heavy: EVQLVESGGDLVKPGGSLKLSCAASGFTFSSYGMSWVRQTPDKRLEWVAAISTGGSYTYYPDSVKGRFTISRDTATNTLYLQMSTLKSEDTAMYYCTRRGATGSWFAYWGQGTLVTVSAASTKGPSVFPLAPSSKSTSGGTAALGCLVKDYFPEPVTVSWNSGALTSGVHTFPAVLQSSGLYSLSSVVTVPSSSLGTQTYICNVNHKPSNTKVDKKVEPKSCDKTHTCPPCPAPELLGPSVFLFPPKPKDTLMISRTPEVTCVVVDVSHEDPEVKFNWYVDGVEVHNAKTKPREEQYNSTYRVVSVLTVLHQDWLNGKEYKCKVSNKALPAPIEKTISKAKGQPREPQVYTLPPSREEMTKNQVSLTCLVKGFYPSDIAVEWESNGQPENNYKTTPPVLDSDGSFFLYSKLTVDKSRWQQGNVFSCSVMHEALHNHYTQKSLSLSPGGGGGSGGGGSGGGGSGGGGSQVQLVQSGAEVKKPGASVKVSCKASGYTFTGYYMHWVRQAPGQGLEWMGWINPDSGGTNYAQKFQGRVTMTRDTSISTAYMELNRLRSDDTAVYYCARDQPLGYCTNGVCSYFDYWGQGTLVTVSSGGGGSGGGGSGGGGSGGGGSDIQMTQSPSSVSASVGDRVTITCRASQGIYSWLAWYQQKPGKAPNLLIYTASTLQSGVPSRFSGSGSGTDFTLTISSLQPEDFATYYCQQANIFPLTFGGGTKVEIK
light: DILMTQSPSSMSVSLGDTVSITCHASQGINNNIGWLQRKPGKSFKGLIYHGTNLEDGVPSRFSGSGSGADYSLTISSLESEDFADYYCVQYVQFPRTFGGGTKLEIKRTVAAPSVFIFPPSDEQLKSGTASVVCLLNNFYPREAKVQWKVDNALQSGNSQESVTEQDSKDSTYSLSSTLTLSKADYEKHKVYACEVTHQGLSSPVTKSFNRGEC
notes: Ly361 HC (IgG1 mutated Fc)-Ly253 scFv VH-VL + Ly361 LC
As for B4, the binding result in assay [1], in assay [2] and in assay [3] was “binds” in each case.

B5: Ly482 (bispecific antibody, human IgG1, kappa)
heavy: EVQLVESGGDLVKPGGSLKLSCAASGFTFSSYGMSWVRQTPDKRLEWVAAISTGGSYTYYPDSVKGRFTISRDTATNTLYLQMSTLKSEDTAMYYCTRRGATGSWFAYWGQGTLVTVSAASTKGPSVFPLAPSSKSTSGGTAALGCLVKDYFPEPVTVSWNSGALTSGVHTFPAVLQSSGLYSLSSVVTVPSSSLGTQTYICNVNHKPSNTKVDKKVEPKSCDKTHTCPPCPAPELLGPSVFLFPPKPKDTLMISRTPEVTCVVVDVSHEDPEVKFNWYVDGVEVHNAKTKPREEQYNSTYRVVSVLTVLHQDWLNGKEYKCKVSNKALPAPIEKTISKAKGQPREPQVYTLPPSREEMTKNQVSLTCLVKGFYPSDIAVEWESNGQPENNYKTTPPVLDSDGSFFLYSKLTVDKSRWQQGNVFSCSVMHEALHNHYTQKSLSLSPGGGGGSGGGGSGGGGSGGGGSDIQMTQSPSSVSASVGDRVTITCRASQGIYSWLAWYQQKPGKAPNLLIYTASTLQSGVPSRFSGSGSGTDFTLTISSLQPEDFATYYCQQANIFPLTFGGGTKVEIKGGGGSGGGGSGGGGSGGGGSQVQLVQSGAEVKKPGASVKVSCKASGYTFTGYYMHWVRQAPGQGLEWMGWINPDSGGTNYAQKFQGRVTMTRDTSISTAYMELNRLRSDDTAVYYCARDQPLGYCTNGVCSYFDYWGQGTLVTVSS
light: DILMTQSPSSMSVSLGDTVSITCHASQGINNNIGWLQRKPGKSFKGLIYHGTNLEDGVPSRFSGSGSGADYSLTISSLESEDFADYYCVQYVQFPRTFGGGTKLEIKRTVAAPSVFIFPPSDEQLKSGTASVVCLLNNFYPREAKVQWKVDNALQSGNSQESVTEQDSKDSTYSLSSTLTLSKADYEKHKVYACEVTHQGLSSPVTKSFNRGEC
notes: Ly361 HC (IgG1 mutated Fc)-Ly253 scFv VL-VH + Ly361 LC
With B5, the binding result in assay [1], in assay [2] and in assay [3] was “binds” throughout.

B6: Ly345 (bispecific antibody, human IgG1, kappa)
heavy: QVQLVQSGAEVKKPGASVKVSCKASGYTFTDFWMSWVRQAPGQGLEWMGQIYPNTGTTHSNEKFKGRVTMTRDTSTSTVYMELSSLRSEDTAVYYCARSYHISTTPNWFAYWGQGTLVTVSSASTKGPSVFPLAPSSKSTSGGTAALGCLVKDYFPEPVTVSWNSGALTSGVHTFPAVLQSSGLYSLSSVVTVPSSSLGTQTYICNVNHKPSNTKVDKKVEPKSCDKTHTCPPCPAPELLGPSVFLFPPKPKDTLMISRTPEVTCVVVDVSHEDPEVKFNWYVDGVEVHNAKTKPREEQYNSTYRVVSVLTVLHQDWLNGKEYKCKVSNKALPAPIEKTISKAKGQPREPQVYTLPPSREEMTKNQVSLTCLVKGFYPSDIAVEWESNGQPENNYKTTPPVLDSDGSFFLYSKLTVDKSRWQQGNVFSCSVMHEALHNHYTQKSLSLSPG
light: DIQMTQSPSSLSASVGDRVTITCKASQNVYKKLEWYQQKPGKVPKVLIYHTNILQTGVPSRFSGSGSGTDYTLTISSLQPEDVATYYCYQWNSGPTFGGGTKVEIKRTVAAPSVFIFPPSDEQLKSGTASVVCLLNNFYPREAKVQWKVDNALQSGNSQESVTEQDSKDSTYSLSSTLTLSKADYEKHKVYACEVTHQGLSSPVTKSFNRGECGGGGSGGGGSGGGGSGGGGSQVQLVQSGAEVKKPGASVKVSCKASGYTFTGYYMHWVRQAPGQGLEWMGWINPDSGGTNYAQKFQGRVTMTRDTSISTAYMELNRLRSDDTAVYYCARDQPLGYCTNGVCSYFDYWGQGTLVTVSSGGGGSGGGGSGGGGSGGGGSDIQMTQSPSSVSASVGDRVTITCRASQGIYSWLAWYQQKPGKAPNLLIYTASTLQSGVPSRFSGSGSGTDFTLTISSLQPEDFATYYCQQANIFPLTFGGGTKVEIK
notes: Ly076 HC (IgG1 mutated Fc) + Ly076 LC-Ly253 scFv VH-VL
Consider B6, for which the binding result in assay [4] and in assay [2] was “binds” throughout.

B7: Ly344 (bispecific antibody, human IgG1, kappa)
heavy: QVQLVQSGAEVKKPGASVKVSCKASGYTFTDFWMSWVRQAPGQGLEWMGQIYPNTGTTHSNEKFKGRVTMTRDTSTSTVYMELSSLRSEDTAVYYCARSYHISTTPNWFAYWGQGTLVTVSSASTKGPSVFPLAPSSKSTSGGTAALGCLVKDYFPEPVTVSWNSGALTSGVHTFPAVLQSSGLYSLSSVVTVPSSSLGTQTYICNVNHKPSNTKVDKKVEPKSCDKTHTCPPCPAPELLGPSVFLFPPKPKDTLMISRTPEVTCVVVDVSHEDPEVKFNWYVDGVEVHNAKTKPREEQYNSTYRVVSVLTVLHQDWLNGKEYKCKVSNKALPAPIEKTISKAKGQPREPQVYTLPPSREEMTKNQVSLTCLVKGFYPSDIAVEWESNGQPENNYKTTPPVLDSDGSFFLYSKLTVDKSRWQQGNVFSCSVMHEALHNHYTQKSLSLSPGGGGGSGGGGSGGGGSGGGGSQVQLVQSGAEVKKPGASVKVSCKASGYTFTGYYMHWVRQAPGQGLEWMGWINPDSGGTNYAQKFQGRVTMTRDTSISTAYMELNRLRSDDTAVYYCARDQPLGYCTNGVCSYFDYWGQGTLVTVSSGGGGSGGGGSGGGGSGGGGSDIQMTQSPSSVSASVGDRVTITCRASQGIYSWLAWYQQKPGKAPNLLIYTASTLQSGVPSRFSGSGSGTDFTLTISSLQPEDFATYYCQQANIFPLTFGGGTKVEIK
light: DIQMTQSPSSLSASVGDRVTITCKASQNVYKKLEWYQQKPGKVPKVLIYHTNILQTGVPSRFSGSGSGTDYTLTISSLQPEDVATYYCYQWNSGPTFGGGTKVEIKRTVAAPSVFIFPPSDEQLKSGTASVVCLLNNFYPREAKVQWKVDNALQSGNSQESVTEQDSKDSTYSLSSTLTLSKADYEKHKVYACEVTHQGLSSPVTKSFNRGEC
notes: Ly076 HC (IgG1 mutated Fc)-Ly253 scFv VH-VL + Ly076 LC
Turning to B7, the binding result in assay [4] and in assay [2] was “binds” throughout.

The record behind these values is patent US20220372155A1 (LYVGEN BIOPHARMA, published 2022).
